Three molecules from PMC7311396 (2020) can be followed below.

Non-standard residues stand in square brackets, D forms with d. No end group written: not given here. Phe(4-NO2) = N[C@@H](Cc1ccc([N+](=O)[O-])cc1)C(=O)O; pS = N[C@@H](COP(=O)(O)O)C(=O)O; βAla = NCCC(=O)O

As usually defined, the Kd is the equilibrium constant for the complex coming apart. Low readings indicate tighter binding, high ones weaker binding. A word on the IC50: it is the concentration needed to halve the response being measured. The low end stands for greater potency in that assay, the high end for weaker potency in that assay.

The chains are these.
B1: FITC-labeled 14-3-3.12 (peptide)
chain: KVF[thiazolylalanine][pS][Phe(4-NO2)]S[βAla][Phe(4-NO2)]K-NH2
modifications: not fully specified (residue 7); also: FITC label, position not given here, position 7 is a β-residue, identity not given here
B2: 14-3-3.12, unlabeled (peptide)
chain: KVF[thiazolylalanine][pS][Phe(4-NO2)]S[βAla][Phe(4-NO2)]K-NH2
modifications: not fully specified (residue 7); also: position 7 is a β-residue, identity not given here
B3: 14-3-3γ (natural protein)
chain: MVDREQLVQKARLAEQAERYDDMAAAMKNVTELNEPLSNEERNLLSVAYKNVVGARRSSWRVISSIEQKTSADGNEKKIEMVRAYREKIEKELEAVCQDVLSLLDNYLIKNCSETQYESKVFYLKMKGDYYRYLAEVATGEKRATVVESSEKAYSEAHEISKEHMQPTHPIRLGLALNYSVFYYEIQNAPEQACHLAKTAFDDAIAELDTLNEDSYKDSTLIMQLLRDNLTLWTSDQQDDDGGEGNN

The target in experiment [1] is B3. Kind of experiment: FP.
The target of experiment [2] is B3. Kind of experiment: FP; competition with FITC-BiExoS.
The target of the next experiment is FITC-labeled 14-3-3.1 (FITC label (position not given); phosphoserine fixed in the middle, flanked by four varied positions on either side; non-canonical amino acids; C-terminal motif Nph-β-Ser-(β-Ala/β-Ser)-Nph; …). The experiment in a line: FP.

Molecule B1 registered a Kd in the experiment with 14-3-3γ [1] of 19 nM.
In the experiment with 14-3-3γ [2], B2 registered an IC50 of 198 nM.
B3: the Kd in the experiment with FITC-labeled 14-3-3.1 was determined as 5.7 nM.
